In US20070036793A1, “Methods for use of an lkb1/strad7mo25 complex” (priority 2003, published 2007):

What was measured:
AMPK = molecular target: T1, AMPK (Homo sapiens, UniProt Q13131); experiment: Activation and Thr-172 phosphorylation of endogenous AMPK in HeLa cells with or without stably expressed LKB1; format: cell-based; conditions: earlier unpublished results
T1 construct: Endogenous AMPK was immunoprecipitated from the cell extracts and assayed; endogenous in cells; host or cells: HeLa cells (control, or stably expressing wild type or kinase-dead LKB1)
T1 sequence (Q13131 whole entry): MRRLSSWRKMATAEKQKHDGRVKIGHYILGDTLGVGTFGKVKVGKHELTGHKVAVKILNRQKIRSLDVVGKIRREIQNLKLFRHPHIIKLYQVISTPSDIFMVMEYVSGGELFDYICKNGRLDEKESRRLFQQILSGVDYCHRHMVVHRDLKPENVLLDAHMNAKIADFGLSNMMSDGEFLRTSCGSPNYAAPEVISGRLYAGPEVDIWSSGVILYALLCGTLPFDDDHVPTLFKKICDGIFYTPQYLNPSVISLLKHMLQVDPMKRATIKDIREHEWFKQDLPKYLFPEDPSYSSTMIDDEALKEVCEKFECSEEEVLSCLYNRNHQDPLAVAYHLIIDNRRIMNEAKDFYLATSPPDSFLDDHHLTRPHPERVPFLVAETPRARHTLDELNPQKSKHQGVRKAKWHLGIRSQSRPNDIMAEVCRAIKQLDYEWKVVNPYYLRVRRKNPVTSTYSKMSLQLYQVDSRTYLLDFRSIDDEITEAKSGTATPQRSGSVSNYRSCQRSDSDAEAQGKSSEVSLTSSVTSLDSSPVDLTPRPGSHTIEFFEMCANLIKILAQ
T1 sequence (Q9Y478 2-270 partner limits assumed): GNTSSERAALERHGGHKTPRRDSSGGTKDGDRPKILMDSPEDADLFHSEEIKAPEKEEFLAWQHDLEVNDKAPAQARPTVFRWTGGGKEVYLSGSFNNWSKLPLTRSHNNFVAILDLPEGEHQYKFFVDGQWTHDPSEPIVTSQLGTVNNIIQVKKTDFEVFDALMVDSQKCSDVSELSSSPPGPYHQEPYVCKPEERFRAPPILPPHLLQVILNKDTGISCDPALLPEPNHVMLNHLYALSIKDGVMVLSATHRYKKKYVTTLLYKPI
T1 sequence (P54619 whole entry partner): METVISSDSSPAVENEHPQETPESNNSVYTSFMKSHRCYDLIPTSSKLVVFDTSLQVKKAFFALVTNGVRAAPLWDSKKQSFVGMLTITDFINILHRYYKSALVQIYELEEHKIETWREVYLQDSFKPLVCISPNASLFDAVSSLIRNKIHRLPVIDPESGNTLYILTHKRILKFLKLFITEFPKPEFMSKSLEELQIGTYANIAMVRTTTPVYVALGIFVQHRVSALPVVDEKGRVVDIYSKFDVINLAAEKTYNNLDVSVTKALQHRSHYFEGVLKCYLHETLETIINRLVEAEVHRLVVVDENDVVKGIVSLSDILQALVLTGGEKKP

[1] = molecular target: T2, GST-LKB1-STRADα-MO25α complex (Mus musculus, UniProt Q9WTK7); experiment: LKB1 kinase assay with AMPK T-loop peptide substrate (Example 3); format: biochemical; conditions: peptide 10-2000 μM, 0.1 mM ATP, 30 min at 30° C.
T2 construct: Constructs expressing the full length wild type and kinase dead mouse LKB1 have been described previously; made in house; host or cells: HEK-293 / HEK-293T cells, co-transfected
T2 sequence (Q9WTK7 1-433 limits assumed): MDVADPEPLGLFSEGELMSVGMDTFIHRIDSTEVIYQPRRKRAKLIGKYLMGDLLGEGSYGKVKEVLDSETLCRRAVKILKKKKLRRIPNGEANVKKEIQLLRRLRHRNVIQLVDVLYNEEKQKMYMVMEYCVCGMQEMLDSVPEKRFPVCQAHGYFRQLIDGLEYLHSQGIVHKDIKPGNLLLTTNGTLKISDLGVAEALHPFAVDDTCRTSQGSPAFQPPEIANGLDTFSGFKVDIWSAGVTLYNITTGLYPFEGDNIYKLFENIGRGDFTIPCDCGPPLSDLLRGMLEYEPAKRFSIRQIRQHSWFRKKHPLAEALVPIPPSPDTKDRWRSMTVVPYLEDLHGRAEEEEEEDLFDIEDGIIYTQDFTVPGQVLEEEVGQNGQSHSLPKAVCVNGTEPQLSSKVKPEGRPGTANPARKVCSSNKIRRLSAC
T2 sequence (Q7RTN6 1-431 partner): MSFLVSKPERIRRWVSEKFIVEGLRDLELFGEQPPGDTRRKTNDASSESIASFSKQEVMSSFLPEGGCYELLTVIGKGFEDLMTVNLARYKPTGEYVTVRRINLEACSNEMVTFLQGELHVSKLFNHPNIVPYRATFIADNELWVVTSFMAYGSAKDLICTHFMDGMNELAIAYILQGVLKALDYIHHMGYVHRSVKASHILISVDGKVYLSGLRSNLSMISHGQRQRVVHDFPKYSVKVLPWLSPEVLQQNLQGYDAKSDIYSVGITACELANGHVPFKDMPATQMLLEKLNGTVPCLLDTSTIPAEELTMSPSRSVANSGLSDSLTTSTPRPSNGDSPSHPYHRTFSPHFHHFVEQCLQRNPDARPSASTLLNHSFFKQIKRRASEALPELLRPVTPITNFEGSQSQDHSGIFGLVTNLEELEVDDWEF
T2 sequence (Q9Y376 1-341 partner): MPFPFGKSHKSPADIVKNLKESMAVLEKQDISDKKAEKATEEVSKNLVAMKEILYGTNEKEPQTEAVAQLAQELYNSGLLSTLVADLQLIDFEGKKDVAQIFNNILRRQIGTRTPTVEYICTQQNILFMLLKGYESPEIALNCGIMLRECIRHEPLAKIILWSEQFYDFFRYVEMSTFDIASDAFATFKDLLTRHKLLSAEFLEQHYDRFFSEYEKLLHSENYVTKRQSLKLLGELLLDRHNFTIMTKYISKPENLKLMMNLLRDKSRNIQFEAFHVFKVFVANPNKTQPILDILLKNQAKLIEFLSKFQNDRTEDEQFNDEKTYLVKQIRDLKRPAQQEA
Description: FIG. 20: Km and Vmax for a peptide substrate (termed AMPKtide). Assay conditions are described in Example 3.
An assay may be performed as follows. Other assays using such a substrate peptide may be used, for example in a high throughput format. The standard assay (50 μl) contained: 0.3 μg of purified GST-LKB1-STRADα-MO25α complex, 50 mM Tris/HCl pH 7.5, 0.1 mM EGTA, 0.1% (by vol) 2-mercaptoethanol, 10 mM magnesium acetate, 0.1 mM [γ^32P]ATP (˜200 cpm/pmol) and T-loop peptide ([…], 10-2000 μM). The assays were carried out for 30 min at 30° C., then terminated by pipetting the reaction mixture onto a 1 cm square of p81 paper, which was washed with 6 changes of 250 ml of 50 mM phosphoric acid (2 min each wash), the paper washed once in 200 ml of acetone and dried. Radioactivity bound to the p81 paper was quantitated by Cherenkov counting. 1 unit of activity is the amount of enzyme that catalyses the phosphorylation of 1 nmol of peptide per minute.

Molecule	activation of AMPK (AMPK)	Km [1]	Vmax [1]
CN(C)C(=N)N=C(N)N [metformin]	not activated		
LSNMMSDGEFLRTSCGSPNRRR [AMPKtide, human AMPKα1 residues 163-181 with 3 additional Arg residues added to the C-terminal]		1800 ± 480 µM	23.4±3.5
